Assay results from patent US20120134993A1 (ZymoGenetics, published 2012).

T1: recombinant human FGF6 (human, UniProt P10767 83-208, limits assumed)
T1 sequence (looked up): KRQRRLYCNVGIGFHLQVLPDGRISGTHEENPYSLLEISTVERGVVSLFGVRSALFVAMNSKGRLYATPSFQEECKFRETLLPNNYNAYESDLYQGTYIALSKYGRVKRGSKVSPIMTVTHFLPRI

T2: recombinant human FGF-17 (human, UniProt O60258 23-216)
T2 sequence (looked up): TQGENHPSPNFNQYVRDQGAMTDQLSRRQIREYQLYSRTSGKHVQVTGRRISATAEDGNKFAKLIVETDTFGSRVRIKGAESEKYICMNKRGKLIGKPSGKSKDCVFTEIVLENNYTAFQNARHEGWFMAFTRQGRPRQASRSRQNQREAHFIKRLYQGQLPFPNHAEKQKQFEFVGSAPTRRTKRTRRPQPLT

T3: recombinant human FGF-8b (human, UniProt P55075-3 23-215)
T3 sequence (looked up): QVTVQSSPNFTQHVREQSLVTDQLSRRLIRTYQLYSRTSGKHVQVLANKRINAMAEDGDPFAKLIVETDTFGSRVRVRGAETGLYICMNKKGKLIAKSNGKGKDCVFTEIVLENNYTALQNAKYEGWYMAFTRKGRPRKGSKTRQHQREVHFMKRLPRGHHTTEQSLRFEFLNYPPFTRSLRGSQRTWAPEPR


Assays:
[1] = molecular target: T1, recombinant human FGF6; experiment: SPR (Biacore T100), FGFR-Fc captured on protein A, FGF6 analyte with heparin, bivalent analyte model (ka1)
Experimental: (§1) Materials and Methods: Binding kinetics and affinity studies were performed on a Biacore T100™ system (GE Healthcare, Piscataway, N.J.). Methods for the Biacore T100™ were programmed using Biacore T100™ Control Software, v 2.0. Since each of the FGF receptor molecules contained a human Fc domain, biotinylated protein-A (Thermo Fisher Scientific Inc, Rockford, Ill.) was used as a capture reagent for these studies. Biotinylated protein-A was diluted to concentration of 50 μg/mL in HBS-EP buffer (10 mM HEPES, 150 mM NaCl, 3 mM EDTA, 0.05% Surfactant P20; GE Healthcare, Piscataway, N.J.), and then captured to all four flow cells of a SA (streptavidin) sensor chip. A density of approximately 1100 RU was obtained for each flow cell. Each FGF receptor molecule was subsequently captured via protein-A onto a separate flow cell of the SA chip at an approximate density of 150-250 RU. The Biacore instrument measures the mass of protein bound to the sensor chip surface, and thus, capture of the receptor was verified for each cycle.
(§2) For kinetic binding studies, serial 1:5 dilutions of FGF ligands were prepared from 200 nM-0.06 nM. These samples were injected over the surface and allowed to specifically bind to the FGF receptor captured on the sensor chip. Injections of each ligand concentration were performed with an association time of 7 minutes and dissociation time of 15 minutes. Kinetic binding studies were performed with a flow rate of 50 μL/min. All binding experiments were performed at 25° C. in HBS-P buffer (10 mM HEPES, 150 mM NaCl, 0.05% Surfactant P20, pH 7.4; GE Healthcare, Piscataway, N.J.), containing 50 μg/mL heparin (Calbiochem, La Jolla, Calif.).
(§3) Between cycles, the flow cell was washed with 20 mM hydrochloric acid to regenerate the surface. This wash step removed both the captured FGF receptor and any bound FGF ligand from the protein-A surface, and allowed for the subsequent binding of the next test sample. Data was compiled using the Biacore T100™ Evaluation software (version 2.0). Data was processed by subtracting reference flow cell and blank injections. Baseline stability was assessed to ensure that the regeneration step provided a consistent binding surface throughout the sequence of injections. Duplicate injection curves were checked for reproducibility. Binding curves were globally fit to the bivalent analyte model.

[2] = molecular target: T2, recombinant human FGF-17; experiment: direct binding ELISA, FGF-17 coated, FGFR-Fc titrated with heparin, anti-human Fc-HRP
Experimental: (§4) To determine the binding capability of FGFR-Fc to their respective ligands, an ELISA was run. Recombinant human FGF-8b or FGF-17 (R&D Systems) was plated at 100 nM on a Nunc Maxisorp 96-well plate for 1 h at room temperature with shaking. The plates were blocked with BLOTTO (Thermo Fisher Scientific, Rockford, Ill.) for 1 h at room temperature, then washed 5 times with ELISA C buffer (137 mM NaCl, 2.7 mM KCl, 7.2 mM Na₂HPO₄, 1.5 mM KH₂PO₄, 0.05% (v/w) polysorbate 20, pH 7.2). FGFR-Fcs were diluted to 100 nM with PBS/0.1×BLOTTO/10 ug/ml porcine heparin (Sigma, St. Louis, Mo.) and then 1:2 serial dilutions were made, ending at 0.10 nM. 100 μL of FGFR-Fcs were plated and incubated at 4° C. overnight. The following day, the plates were washed 5 times with ELISA C and then incubated with 2.5 μg/mL horseradish peroxidase-conjugated anti-human Fc antibody (Jackson ImmunoResearch Laboratories, West Grove, Pa.) for 1 h at room temperature with shaking. After 5 washes with ELISA C, 100 μL of OPD in citrate buffer (5 mg of o-phenylenediamine in 63 mM sodium citrate, 37 mM citric acid, pH 5.0, 0.03% H₂O₂) was added for detection. After 2-5 minutes, the reaction was stopped with 1 N H₂SO₄. The plates were read at 490 nm using SoftMaxPro software.

[3] = molecular target: T1, recombinant human FGF6; experiment: SPR (Biacore T100), FGFR-Fc captured on protein A, FGF6 analyte with heparin, bivalent analyte model (KD1)
Experimental: as §1, §2, §3

[4] = molecular target: T3, recombinant human FGF-8b; experiment: direct binding ELISA, FGF-8b coated, FGFR-Fc titrated with heparin, anti-human Fc-HRP
Experimental: as §4

[5] = molecular target: human FGF-9 (human, UniProt P31371 4-208); experiment: cell-based or functional assay
[6] = molecular target: T1, recombinant human FGF6; experiment: SPR (Biacore T100), FGFR-Fc captured on protein A, FGF6 analyte with heparin, bivalent analyte model (kd1)
Experimental: as §1, §2, §3

[7] = molecular target: T1, recombinant human FGF6; experiment: SPR (Biacore T100), FGFR-Fc captured on protein A, FGF6 analyte with heparin, bivalent analyte model (KA1)
Experimental: as §1, §2, §3

[8] = molecular target: T3, recombinant human FGF-8b; experiment: cell-based or functional assay

Row | Binder | kon [1] | IC50 [2] | Kd [3] | IC50 [4] | Proliferation IC50, FGF-9-stimulated HCO osteoblasts (3H-thymidine) [5] | koff [6] | Ka [7] | Proliferation IC50, FGF8b-stimulated LNCap cells (3H-thymidine) [8]
1 | FGFR3IIIc(23-375) Fc5, full-length FGFR3-Fc (A2257F) (Fc fusion, also called FGFR3 A2257F; FGFR3IIIc(23_375) C(Fc5)) ESLGTEQRVVGRAAEVPGPEPGQQEQLVFGSGDAVELSCPPPGGGPMGPTVWVKDGTGLVPSERVLVGPQRLQVLNASHEDSGAYSCRQRLTQRVLCHFSVRVTDAPSSGDDEDGEDEAEDTGVDTGAPYWTRPERMDKKLLAVPAANTVRFRCPAAGNPTPSISWLKNGREFRGEHRIGGIKLRHQQWSLVMESVVPSDRGNYTCVVENKFGSIRQTYTLDVLERSPHRPILQAGLPANQTAVLGSDVEFHCKVYSDAQPHIQWLKHVEVNGSKVGPDGTPYVTVLKTAGANTTDKELEVLSLHNVTFEDAGEYTCLAGNSIGFSHHSAWLVVLPAEEELVEADEAGSVYAGEPKSSDKTHTCPPCPAPEAEGAPSVFLFPPKPKDTLMISRTPEVTCVVVDVSHEDPEVKFNWYVDGVEVHNAKTKPREEQYNSTYRVVSVLTVLHQDWLNGKEYKCKVSNKALPSSIEKTISKAKGQPREPQVYTLPPSRDELTKNQVSLTCLVKGFYPSDIAVEWESNGQPENNYKTTPPVLDSDGSFFLYSKLTVDKSRWQQGNVFSCSVMHEALHNHYTQKSLSLSPGK | 400000 M⁻¹ s⁻¹ | 20.1 nM | 200 nM | 41.9 nM | 1.19 nM | 0.06 s⁻¹ | 7e+06 M⁻¹ | 
2 | FGFR3IIIc(23-375)(P250R) Fc5, full-length FGFR3-Fc P250R (A2259F) (Fc fusion, also called FGFR3 A2259F; FGFR3IIIc(23_375) (P250R) C(Fc5)) ESLGTEQRVVGRAAEVPGPEPGQQEQLVFGSGDAVELSCPPPGGGPMGPTVWVKDGTGLVPSERVLVGPQRLQVLNASHEDSGAYSCRQRLTQRVLCHFSVRVTDAPSSGDDEDGEDEAEDTGVDTGAPYWTRPERMDKKLLAVPAANTVRFRCPAAGNPTPSISWLKNGREFRGEHRIGGIKLRHQQWSLVMESVVPSDRGNYTCVVENKFGSIRQTYTLDVLERSRHRPILQAGLPANQTAVLGSDVEFHCKVYSDAQPHIQWLKHVEVNGSKVGPDGTPYVTVLKTAGANTTDKELEVLSLHNVTFEDAGEYTCLAGNSIGFSHHSAWLVVLPAEEELVEADEAGSVYAGEPKSSDKTHTCPPCPAPEAEGAPSVFLFPPKPKDTLMISRTPEVTCVVVDVSHEDPEVKFNWYVDGVEVHNAKTKPREEQYNSTYRVVSVLTVLHQDWLNGKEYKCKVSNKALPSSIEKTISKAKGQPREPQVYTLPPSRDELTKNQVSLTCLVKGFYPSDIAVEWESNGQPENNYKTTPPVLDSDGSFFLYSKLTVDKSRWQQGNVFSCSVMHEALHNHYTQKSLSLSPGK | 300000 M⁻¹ s⁻¹ | 45.3 nM | 20 nM | 52.6 nM | 1.14 nM | 0.005 s⁻¹ | 6e+07 M⁻¹ | 
3 | FGFR3IIIc(143-375) Fc5, truncated FGFR3-Fc (A2518F) (Fc fusion, This is the form with the second and third Ig-like domains; also called FGFR3 A2518F; FGFR3IIIc(143_375) C(Fc5)) DTGVDTGAPYWTRPERMDKKLLAVPAANTVRFRCPAAGNPTPSISWLKNGREFRGEHRIGGIKLRHQQWSLVMESVVPSDRGNYTCVVENKFGSIRQTYTLDVLERSPHRPILQAGLPANQTAVLGSDVEFHCKVYSDAQPHIQWLKHVEVNGSKVGPDGTPYVTVLKTAGANTTDKELEVLSLHNVTFEDAGEYTCLAGNSIGFSHHSAWLVVLPAEEELVEADEAGSVYAGEPKSSDKTHTCPPCPAPEAEGAPSVFLFPPKPKDTLMISRTPEVTCVVVDVSHEDPEVKFNWYVDGVEVHNAKTKPREEQYNSTYRVVSVLTVLHQDWLNGKEYKCKVSNKALPSSIEKTISKAKGQPREPQVYTLPPSRDELTKNQVSLTCLVKGFYPSDIAVEWESNGQPENNYKTTPPVLDSDGSFFLYSKLTVDKSRWQQGNVFSCSVMHEALHNHYTQKSLSLSPGK | 200000 M⁻¹ s⁻¹ | 3.79 nM | 300 nM | 16.4 nM | 0.77 nM | 0.06 s⁻¹ | 3e+06 M⁻¹ | 
4 | FGFR3IIIc(143-375)(P250R) Fc5, truncated FGFR3-Fc P250R (A2519F) (Fc fusion, also called FGFR3 A2519F; FGFR3IIIc(143_375) (P250R) C(Fc5)) DTGVDTGAPYWTRPERMDKKLLAVPAANTVRFRCPAAGNPTPSISWLKNGREFRGEHRIGGIKLRHQQWSLVMESVVPSDRGNYTCVVENKFGSIRQTYTLDVLERSRHRPILQAGLPANQTAVLGSDVEFHCKVYSDAQPHIQWLKHVEVNGSKVGPDGTPYVTVLKTAGANTTDKELEVLSLHNVTFEDAGEYTCLAGNSIGFSHHSAWLVVLPAEEELVEADEAGSVYAGEPKSSDKTHTCPPCPAPEAEGAPSVFLFPPKPKDTLMISRTPEVTCVVVDVSHEDPEVKFNWYVDGVEVHNAKTKPREEQYNSTYRVVSVLTVLHQDWLNGKEYKCKVSNKALPSSIEKTISKAKGQPREPQVYTLPPSRDELTKNQVSLTCLVKGFYPSDIAVEWESNGQPENNYKTTPPVLDSDGSFFLYSKLTVDKSRWQQGNVFSCSVMHEALHNHYTQKSLSLSPGK | 200000 M⁻¹ s⁻¹ | 37.6 nM | 20 nM | 9.7 nM | 0.99 nM | 0.004 s⁻¹ | 5e+07 M⁻¹ | 0.01 nM
5 | FGFR2alphaIIIc(145-377)(S252W) Fc5, truncated FGFR2-Fc S252W (A2560F) (Fc fusion, also called FGFR2 A2560F; construct #1949) SENSNNKRAPYWTNTEKMEKRLHAVPAANTVKFRCPAGGNPMPTMRWLKNGKEFKQEHRIGGYKVRNQHWSLIMESVVPSDKGNYTCVVENEYGSINHTYHLDVVERWPHRPILQAGLPANASTVVGGDVEFVCKVYSDAQPHIQWIKHVEKNGSKYGPDGLPYLKVLKAAGVNTTDKEIEVLYIRNVTFEDAGEYTCLAGNSIGISFHSAWLTVLPAPGREKEITASPDYLEEPKSSDKTHTCPPCPAPEAEGAPSVFLFPPKPKDTLMISRTPEVTCVVVDVSHEDPEVKFNWYVDGVEVHNAKTKPREEQYNSTYRVVSVLTVLHQDWLNGKEYKCKVSNKALPSSIEKTISKAKGQPREPQVYTLPPSRDELTKNQVSLTCLVKGFYPSDIAVEWESNGQPENNYKTTPPVLDSDGSFFLYSKLTVDKSRWQQGNVFSCSVMHEALHNHYTQKSLSLSPGK |  | 223 nM |  |  |  |  |  | 
